Reference: patent publication US20220153832A1 (PIONYR IMMUNOTHERAPEUTICS, published 2022)

T1: recombinant cynomolgus MARCO protein (cynomolgus, UniProt A0A2K5X0Z2 65-519)
T1 construct: Construct not described; also called cyno MARCO; cynoMARCO
T1 sequence: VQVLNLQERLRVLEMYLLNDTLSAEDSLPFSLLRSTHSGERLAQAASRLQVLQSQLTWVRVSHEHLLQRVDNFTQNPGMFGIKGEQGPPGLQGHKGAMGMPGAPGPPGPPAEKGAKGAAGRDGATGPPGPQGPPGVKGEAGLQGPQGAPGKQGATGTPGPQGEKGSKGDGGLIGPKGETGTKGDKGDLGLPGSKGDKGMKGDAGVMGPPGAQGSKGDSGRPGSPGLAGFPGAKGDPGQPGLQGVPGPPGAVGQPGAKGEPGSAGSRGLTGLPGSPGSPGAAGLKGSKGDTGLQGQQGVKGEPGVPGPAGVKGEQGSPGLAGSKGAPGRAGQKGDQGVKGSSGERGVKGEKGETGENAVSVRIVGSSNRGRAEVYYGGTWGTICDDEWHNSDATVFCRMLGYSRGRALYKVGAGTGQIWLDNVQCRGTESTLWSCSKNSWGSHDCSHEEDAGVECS

T2: Human Macrophage Receptor with Collagenous Structure (MARCO), full length, on cells (human, UniProt Q9UEW3 1-520)
T2 construct: the cell type is named under assay; also called huMARCO; HuMARCO
T2 sequence: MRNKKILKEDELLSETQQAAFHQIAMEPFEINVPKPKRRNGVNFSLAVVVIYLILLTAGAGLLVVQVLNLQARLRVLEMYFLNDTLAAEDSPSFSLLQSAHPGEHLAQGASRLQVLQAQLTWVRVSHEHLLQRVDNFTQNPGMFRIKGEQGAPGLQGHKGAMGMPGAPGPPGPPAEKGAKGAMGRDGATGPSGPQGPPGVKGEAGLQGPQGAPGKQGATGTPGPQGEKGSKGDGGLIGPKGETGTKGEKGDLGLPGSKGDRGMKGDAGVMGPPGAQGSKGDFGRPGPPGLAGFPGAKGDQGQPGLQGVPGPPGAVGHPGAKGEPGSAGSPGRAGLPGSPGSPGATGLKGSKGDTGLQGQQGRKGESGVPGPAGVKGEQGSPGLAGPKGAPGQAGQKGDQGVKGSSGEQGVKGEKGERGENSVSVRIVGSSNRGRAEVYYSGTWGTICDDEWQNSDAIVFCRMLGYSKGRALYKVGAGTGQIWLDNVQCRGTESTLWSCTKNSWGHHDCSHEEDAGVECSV

T3: Mouse MARCO, full length, on cells (mouse, UniProt Q60754 1-518)
T3 construct: whole, on cells; the cell type is named under assay; also called muMARCO; MuMARCO
T3 sequence (looked up): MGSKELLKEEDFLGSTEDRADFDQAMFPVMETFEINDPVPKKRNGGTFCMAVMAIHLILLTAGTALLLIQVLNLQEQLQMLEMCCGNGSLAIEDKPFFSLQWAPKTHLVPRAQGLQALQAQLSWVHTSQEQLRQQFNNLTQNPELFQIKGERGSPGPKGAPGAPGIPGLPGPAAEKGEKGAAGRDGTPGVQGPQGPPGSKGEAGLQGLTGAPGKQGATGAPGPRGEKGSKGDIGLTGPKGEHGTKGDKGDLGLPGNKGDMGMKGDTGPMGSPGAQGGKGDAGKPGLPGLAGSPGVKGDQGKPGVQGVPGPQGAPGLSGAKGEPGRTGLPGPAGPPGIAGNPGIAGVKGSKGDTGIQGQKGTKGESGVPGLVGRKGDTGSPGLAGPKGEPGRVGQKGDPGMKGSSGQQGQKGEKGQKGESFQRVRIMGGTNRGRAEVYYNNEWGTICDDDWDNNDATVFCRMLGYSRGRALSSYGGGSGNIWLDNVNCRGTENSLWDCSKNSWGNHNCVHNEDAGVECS


Columns and labels:
[1] = biological target: T1, recombinant cynomolgus MARCO protein; assay: SPR, multi cycle kinetics, cyno MARCO
[2] = biological target: T2, Human Macrophage Receptor with …; assay: competition with AF488 E. coli binding to 293T cells expressing MARCO, flow cytometry
Procedure: Zombie NIR viability dye (BioLegend) was prepared by diluting the stock 1000-fold in D-PBS and added to the cells. The cells were incubated with the dye for 10 min at RT in the dark. The reaction was quenched by adding 1 m of 4× Staining buffer (2% FBS in DBPS containing Ca²⁺), followed by centrifugation at 400×g for 5 min at 4° C. Cells were then plated in V-shaped 96 well plates at a density of 100,000 cells. A488-fluorescently labeled bacteria (E. coli from Invitrogen) was added at 10 μg/ml with the anti-human or anti-mouse antibodies of interest for a 30 min incubation at 37 C. Plates were then washed twice followed by resuspension in 100 ul of staining buffer for acquisition on the flow cytometer (Attune NxT, Life Technologies). Flow cytometry data were analyzed using FlowJo software (version 10.6.1) and data were processed and further analyzed in Microsoft Excel and GraphPad Prism software (version 8).
The newly generated rat hybridoma anti-human MARCO antibodies were characterized as previously described. Neither antibody bound to MSR1. Binding kinetics were determined via Multi Cycle Kinetics analysis using the huMARCO antigen as previously described.

[3] = biological target: T3, Mouse MARCO, full length, on cells; assay: flow cytometry, 293T (MuMARCO)

Row | Kd [1] [pM] | EC50 [2] [pM] | EC50 [3] [pM] | Binder
1 | 109 | 180 |  | PI-HX-3031 (antibody, Parental rat hybridoma, rat IgG2a) heavy: QVQLKESGPGLVQPSQTLSLTCTVSGFSLTSYHVSWVRQPPGKGLEWMGAIWTGGSIAYNSLLKSRLSISRDTSKSQVFLKMNSLQTEDTATYYCARDLSDYYSSYTSFDYWGQGVMVTVSTAETTAPSVYPLAPGTALKSNSMVTLGCLVKGYFPEPVTVTWNSGALSSGVHTFPAVLQSGLYTLTSSVTVPSSTWSSQAVTCNVAHPASSTKVDKKIVPRECNPCGCTGSEVSSVFIFPPKTKDVLTITLTPKVTCVVVDISQNDPEVRFSWFIDDVEVHTAQTHAPEKQSNSTLRSVSELPIVHRDWLNGKTFKCKVNSGAFPAPIEKSISKPEGTPRGPQVYTMAPPKEEMTQSQVSITCMVKGFYPPDIYTEWKMNGQPQENYKNTPPTMDTDGSYFLYSKLNVKKETWQQGNTFTCSVLHEGLHNHHTEKSLSHSP light: DIQMTQSPASLSTSLGETVSIECLASEGISNDLAWYQQKSGKSPQLLIYAASRLQDGVPSRFSGSGSGTRYSLKISGMQPEDEADYFCQQSYKYPLTFGSGTKLEIKRADAAPTVSIFPPSTEQLATGGASVVCLMNNFYPRDISVKWKIDGTERRDGVLDSVTDQDSKDSTYSMSSTLSLTKADYESHNLYTCEVVHKTSSSPVVKSFNRNEC
2 |  | 520 | 1520 | PI-HX-3061 (antibody, rat IgG2a, Parental rat hybridoma, rat IgG2a; cross reactive with human and mouse MARCO) heavy: EVQLVESGGGLVQPGSSLKLSCVASKFTFSNYGMNWIRQAPKKGLEWIALIYYNSNNKYYADSVKGRFTISRDNSKNTLYLEMNSLRSEDTAMYYCAKSLTGGSDYFDSWGQGVMVTVSSAETTAPSVYPLAPGTALKSNSMVTLGCLVKGYFPEPVTVTWNSGALSSGVHTFPAVLQSGLYTLTSSVTVPSSTWPSQTVTCNVAHPASSTKVDKKIVPRNCGGDCKPCICTGSEVSSVFIFPPKPKDVLTITLTPKVTCVVVDISQDDPEVHFSWFVDDVEVHTAQTRPPEEQFNSTFRSVSELPILHQDWLNGRTFRCKVTSAAFPSPIEKTISKPEGRTQVPHVYTMSPTKEEMTQNEVSITCMVKGFYPPDIYVEWQMNGQPQENYKNTPPTMDTDGSYFLYSKLNVKKEKWQQGNTFTCSVLHEGLHNHHTEKSLSHSP light: DVQMTQSPSYLAASPGESVSISCKASKSIGTFLAWYQEKPEKTNKLLIYSGSTLQSGTPSRFSGSGSGTDFTLTIRNLEPEDFAVYYCQQHDEYPFTFGSGTKLEIKRADAAPTVSIFPPSTEQLATGGASVVCLMNNFYPRDISVKWKIDGTERRDGVLDSVTDQDSKDSTYSMSSTLSLTKADYESHNLYTCEVVHKTSSSPVVKSFNRNEC
